Measured values from publication PMC7317872.
Each block holds one substance with its values, some of them ahead of it.

Key:
Cdh23 EC1 (WT) (mouse) [1] = molecular target: Cdh23 EC1 (WT) (mouse) (UniProt Q99PF4); experiment: AUC; sedimentation equilibrium at three rotor speeds, 20 °C, pH 7.6, 25 mM HEPES, 50 mM NaCl, 25 mM KCl, 2 mM CaCl2; global fit to monomer-dimer equilibrium (SEDPHAT); dimer to monomers
Cdh23 EC1 (WT) (mouse) [2] = molecular target: Cdh23 EC1 (WT) (mouse) (UniProt Q99PF4); experiment: single-molecule force spectroscopy (AFM); protein anchored by its C terminus to cantilever and to coverslip (sortagging, PEG 5 kDa spacers); seven loading rates, contact time 500 ms; Bell-Evans fit
Cdh23 EC1 (WT) (mouse) [3] = molecular target: Cdh23 EC1 (WT) (mouse) (UniProt Q99PF4); experiment: AUC; sedimentation velocity, 142 000 g, 20 °C, pH 7.6, 25 mM HEPES, 50 mM NaCl, 25 mM KCl, 2 mM CaCl2; EC1-2 WT at 36 μM, EC1-2 E78K at 30 μM or ~440 μM, EC1 at 45 μM
Cdh23 EC1-2 (WT) (mouse) [4] = molecular target: Cdh23 EC1-2 (WT) (mouse) (UniProt Q99PF4); experiment: AUC; sedimentation equilibrium at three rotor speeds, 20 °C, pH 7.6, 25 mM HEPES, 50 mM NaCl, 25 mM KCl, 2 mM CaCl2; global fit to monomer-dimer equilibrium (SEDPHAT); dimer to monomers
Cdh23 EC1-2 (WT) (mouse) [5] = molecular target: Cdh23 EC1-2 (WT) (mouse) (UniProt Q99PF4); experiment: SEC; analytical SEC, Superdex 200 increase 10/300, 100 μM injected, 25 mM HEPES, 25 mM KCl, 50 mM NaCl, 2 mM CaCl2, pH 7.5; 4 °C
Cdh23 EC1-2 (WT) (mouse) [6] = molecular target: Cdh23 EC1-2 (WT) (mouse) (UniProt Q99PF4); experiment: single-molecule force spectroscopy (AFM); protein anchored by its C terminus to cantilever and to coverslip (sortagging, PEG 5 kDa spacers); seven loading rates, contact time 500 ms; Bell-Evans fit
Cdh23 EC1-2 (WT) (mouse) [7] = molecular target: Cdh23 EC1-2 (WT) (mouse) (UniProt Q99PF4); experiment: AUC; sedimentation velocity, 142 000 g, 20 °C, pH 7.6, 25 mM HEPES, 50 mM NaCl, 25 mM KCl, 2 mM CaCl2; EC1-2 WT at 36 μM, EC1-2 E78K at 30 μM or ~440 μM, EC1 at 45 μM
Cdh23 EC1-2 (WT) (mouse) [8] = molecular target: Cdh23 EC1-2 (WT) (mouse) (UniProt Q99PF4); experiment: SAXS; proteins at 10 mg·mL^-1 in solution, SAXSpace instrument; 10 °C (methods)
Cdh23 EC1-3 (mouse) = experiment: SEC; analytical SEC, Superdex 200 increase 10/300, 100 μM injected, 25 mM HEPES, 25 mM KCl, 50 mM NaCl, 2 mM CaCl2, pH 7.5; 4 °C

Kd (Cdh23 EC1 (WT) (mouse) [1]): 52 µM | probability of events (Cdh23 EC1 (WT) (mouse) [2]): 10% | stoichiometry N (Cdh23 EC1 (WT) (mouse) [3]): 2
Substance: Cdh23 EC1 (WT) (from UniProt Q99PF4 24-124) (domain or fragment)

Kd (Cdh23 EC1-2 (WT) (mouse) [4]): 18 µM | stoichiometry N (Cdh23 EC1-2 (WT) (mouse) [5]): 2 | intrinsic lifetime at zero force (τ0), high-force distribution (Cdh23 EC1-2 (WT) (mouse) [6]): 1220 s | intrinsic lifetime at zero force (τ0), low-force distribution (Cdh23 EC1-2 (WT) (mouse) [6]): 1.86 s | probability of events (Cdh23 EC1-2 (WT) (mouse) [6]): 6% | stoichiometry N (Cdh23 EC1-2 (WT) (mouse) [7]): 2 | stoichiometry N (Cdh23 EC1-2 (WT) (mouse) [8]): 2
Substance: Cdh23 EC1-2 (WT) (from UniProt Q99PF4 24-228) (domain or fragment)

stoichiometry N (Cdh23 EC1-3 (mouse)): 2
Substance: Cdh23 EC1-3 (domain or fragment)
